In publication PMC6044767:
Several values for one entry are separate records, joined by “and”; a condition that tells them apart may be missing. Equal entries are not always repeated.

How the values were obtained:
[1] = target: native Escherichia coli L-asparaginase II (Kidrolase) (E. coli) (UniProt P00805); assay: native gel or EMSA
[2] = target: native Escherichia coli L-asparaginase II (Kidrolase) (E. coli) (UniProt P00805); assay: SEC
[3] = target: native Escherichia coli L-asparaginase II (Kidrolase) (E. coli) (UniProt P00805)
[4] = target: native Escherichia coli L-asparaginase II (Kidrolase) (E. coli) (UniProt P00805); remark: listed apart in the source
[5] = target: native Escherichia coli L-asparaginase II (Kidrolase) (E. coli) (UniProt P00805); assay: native gel or EMSA; remark: listed apart in the source
[6] = target: T1, N21-EcAII (E. coli K12), P00805; assay: SEC; details: remark: other sources report otherwise
T1 chain: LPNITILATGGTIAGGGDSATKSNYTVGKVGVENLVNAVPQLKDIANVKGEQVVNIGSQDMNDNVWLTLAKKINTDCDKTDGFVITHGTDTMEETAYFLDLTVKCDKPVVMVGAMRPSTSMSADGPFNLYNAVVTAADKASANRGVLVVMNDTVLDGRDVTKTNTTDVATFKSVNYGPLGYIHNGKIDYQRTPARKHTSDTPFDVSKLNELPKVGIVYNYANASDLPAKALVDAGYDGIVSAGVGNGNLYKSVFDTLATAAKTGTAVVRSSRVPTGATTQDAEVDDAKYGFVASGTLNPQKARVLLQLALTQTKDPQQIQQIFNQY

[7] = target: T1, N21-EcAII (E. coli K12), P00805; assay: SEC; details: remark: other sources report otherwise
[8] = target: T2, N26-EcAII (E. coli K12), P00805; assay: SEC; details: remark: other sources report otherwise
T2 chain: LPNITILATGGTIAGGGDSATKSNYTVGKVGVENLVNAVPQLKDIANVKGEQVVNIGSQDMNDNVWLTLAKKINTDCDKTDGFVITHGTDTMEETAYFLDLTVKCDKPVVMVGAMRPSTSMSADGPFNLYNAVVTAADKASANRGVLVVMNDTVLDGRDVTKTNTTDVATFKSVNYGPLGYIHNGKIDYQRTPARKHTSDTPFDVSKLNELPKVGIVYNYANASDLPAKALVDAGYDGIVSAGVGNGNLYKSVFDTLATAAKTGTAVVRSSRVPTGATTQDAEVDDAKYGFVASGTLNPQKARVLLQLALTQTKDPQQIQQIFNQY

[9] = target: T2, N26-EcAII (E. coli K12), P00805; assay: native gel or EMSA; details: remark: other sources report otherwise
[10] = target: T2, N26-EcAII (E. coli K12), P00805; assay: SEC; details: remark: other sources report otherwise
[11] = target: T3, C8-EcAII (E. coli K12), P00805; assay: SEC; details: remark: other sources report otherwise
T3 chain: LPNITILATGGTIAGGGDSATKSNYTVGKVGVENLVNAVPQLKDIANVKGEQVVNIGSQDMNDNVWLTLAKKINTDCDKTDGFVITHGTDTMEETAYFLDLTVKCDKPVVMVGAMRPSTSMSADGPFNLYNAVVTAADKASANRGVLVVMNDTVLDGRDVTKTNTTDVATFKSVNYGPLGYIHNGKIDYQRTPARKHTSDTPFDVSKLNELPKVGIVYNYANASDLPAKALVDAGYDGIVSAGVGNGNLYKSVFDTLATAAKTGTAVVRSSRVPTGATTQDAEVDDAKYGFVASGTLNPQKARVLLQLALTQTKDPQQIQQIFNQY

[12] = target: T3, C8-EcAII (E. coli K12), P00805; assay: native gel or EMSA; details: remark: other sources report otherwise
[13] = target: T3, C8-EcAII (E. coli K12), P00805; assay: SEC; details: remark: other sources report otherwise

Molecule: native Escherichia coli L-asparaginase II (Kidrolase) (from UniProt P00805 23-348) (enzyme)
- stoichiometry N [1]: 8 and 12 and 4
- stoichiometry N [2]: 4 and 8 and 12
- specific activity of EcAII immobilized on gold chips (GDH-coupled assay) [3]: 310 U mg^–1
- specific activity in solution (GDH-coupled assay) [4]: 118 U mg^–1
- stoichiometry N [5]: 4 and 8 and 12

B1: N21-EcAII, P00805 23-348 (enzyme)
chain: LPNITILATGGTIAGGGDSATKSNYTVGKVGVENLVNAVPQLKDIANVKGEQVVNIGSQDMNDNVWLTLAKKINTDCDKTDGFVITHGTDTMEETAYFLDLTVKCDKPVVMVGAMRPSTSMSADGPFNLYNAVVTAADKASANRGVLVVMNDTVLDGRDVTKTNTTDVATFKSVNYGPLGYIHNGKIDYQRTPARKHTSDTPFDVSKLNELPKVGIVYNYANASDLPAKALVDAGYDGIVSAGVGNGNLYKSVFDTLATAAKTGTAVVRSSRVPTGATTQDAEVDDAKYGFVASGTLNPQKARVLLQLALTQTKDPQQIQQIFNQY
- stoichiometry N [6]: 8 and 12 and 4
- stoichiometry N [7]: 4

B2: N26-EcAII, P00805 23-348 (enzyme)
chain: LPNITILATGGTIAGGGDSATKSNYTVGKVGVENLVNAVPQLKDIANVKGEQVVNIGSQDMNDNVWLTLAKKINTDCDKTDGFVITHGTDTMEETAYFLDLTVKCDKPVVMVGAMRPSTSMSADGPFNLYNAVVTAADKASANRGVLVVMNDTVLDGRDVTKTNTTDVATFKSVNYGPLGYIHNGKIDYQRTPARKHTSDTPFDVSKLNELPKVGIVYNYANASDLPAKALVDAGYDGIVSAGVGNGNLYKSVFDTLATAAKTGTAVVRSSRVPTGATTQDAEVDDAKYGFVASGTLNPQKARVLLQLALTQTKDPQQIQQIFNQY
- stoichiometry N [8]: 4
- stoichiometry N [9]: 4
- stoichiometry N [10]: 4

B3: C8-EcAII, P00805 23-348 (enzyme)
chain: LPNITILATGGTIAGGGDSATKSNYTVGKVGVENLVNAVPQLKDIANVKGEQVVNIGSQDMNDNVWLTLAKKINTDCDKTDGFVITHGTDTMEETAYFLDLTVKCDKPVVMVGAMRPSTSMSADGPFNLYNAVVTAADKASANRGVLVVMNDTVLDGRDVTKTNTTDVATFKSVNYGPLGYIHNGKIDYQRTPARKHTSDTPFDVSKLNELPKVGIVYNYANASDLPAKALVDAGYDGIVSAGVGNGNLYKSVFDTLATAAKTGTAVVRSSRVPTGATTQDAEVDDAKYGFVASGTLNPQKARVLLQLALTQTKDPQQIQQIFNQY
- stoichiometry N [11]: 4
- percent dissociated into monomer [12]: 50%
- stoichiometry N [12]: 4 and 8
- stoichiometry N [13]: 4
